Experiments:
GALR2 [1] = biological target: T1, GALR2 (Homo sapiens, UniProt O43603); assay: β-arrestin recruitment, PathHunter CHO-K1 GALR2 cells; assay type: cell-based; settings: Table 2; mean +/− standard deviation, n ≥ 3
T1 sequence (O43603 1-387): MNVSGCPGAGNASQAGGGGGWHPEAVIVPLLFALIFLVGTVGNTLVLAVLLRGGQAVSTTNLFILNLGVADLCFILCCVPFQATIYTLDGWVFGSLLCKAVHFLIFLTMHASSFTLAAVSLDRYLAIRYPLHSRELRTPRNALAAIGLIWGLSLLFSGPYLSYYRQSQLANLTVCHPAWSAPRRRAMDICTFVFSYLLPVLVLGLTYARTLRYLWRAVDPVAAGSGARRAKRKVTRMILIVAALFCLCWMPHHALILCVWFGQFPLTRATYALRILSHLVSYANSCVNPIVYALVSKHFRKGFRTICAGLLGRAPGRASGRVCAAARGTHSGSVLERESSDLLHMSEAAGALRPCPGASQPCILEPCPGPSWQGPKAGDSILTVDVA
Method: Ligands were prepared at half log dilutions using cell plating reagent 2. 5 μl of each ligand was added to cells and plates incubated at 37° C. for 90 minutes. DiscoverX PathHunter detection kit (DiscoverX, USA) was added to cells as described my manufacturer's guidelines and plates incubated for 60 minutes at room temperature in the dark. Chemiluminescent signal was measured using the PHERAstar FS (BMG, Germany).

GALR3 = biological target: T2, GALR3 (Homo sapiens, UniProt O60755); assay: Luciferase reporter gene assay (SRE), HEK293 Gqi cells; assay type: cell-based
T2 construct: expressed in transfected cells; host or cells: genetically modified HEK293 Gqi cells, transient
T2 sequence (O60755 1-368): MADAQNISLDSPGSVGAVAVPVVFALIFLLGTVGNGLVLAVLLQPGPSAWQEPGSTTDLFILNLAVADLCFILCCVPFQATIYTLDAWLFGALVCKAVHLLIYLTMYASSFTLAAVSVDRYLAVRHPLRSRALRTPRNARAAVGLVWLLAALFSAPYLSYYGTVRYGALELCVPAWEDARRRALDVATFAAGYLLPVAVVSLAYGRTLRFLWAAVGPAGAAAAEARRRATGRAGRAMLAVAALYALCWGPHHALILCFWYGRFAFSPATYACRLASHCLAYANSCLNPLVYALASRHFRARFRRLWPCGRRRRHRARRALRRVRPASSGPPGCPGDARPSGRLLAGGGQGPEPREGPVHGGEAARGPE
Method: GalR3 activity was measured, alongside GalR1 and GalR2, using a luciferase reporter assay. A reporter plasmid and a receptor plasmid, were transiently transfected into the target cell line. The reporter plasmid contains a serum response element (SRE) or a nuclear factor of activated T-cells response element (NFAT-RE) which is coupled to a luciferase transcript and induces expression of the luciferase upon a specific G-protein (Gai uses SRE; Gaq uses NFAT-RE) activation. The target receptor is constantly expressed after cell transfection. For GALR1 and GALR3 screening, genetically modified HEK293 Gqi cells were transiently transfected with the SRE reporter and the receptor (GALR1 and GALR3) plasmids. For GALR2 screening, HEK293 cells were transiently transfected with the NFAT-RE reporter and the receptor (GALR2) plasmid. […] The luciferase activity was analyzed with the Bright-Glo Luciferase Assay (Promega) in an EnSpire plate reader.
Therefore, to measure activity at the GalR3 receptor a reporter gene assay was used. In this system MAP/ERK signalling is used to measure receptor activity. Activation of Gqi coupled receptors leads to downstream activation of ERK1/2. The activated ERK translocates to the nucleus where it phosphorylates and activates transcription factors, which lead to the binding of Serum response element (SRE). In this assay SRE activation induces expression of a luciferase reporter gene. […] To ensure this effect was not an artifact of the reporter gene assay, GalR1 and GalR2 reporter assays (using SRE and NFAT-RE respectively) were also run.

mouse GalR2 = biological target: T3, mouse GalR2 (Mus musculus, UniProt O88854); assay: Calcium assay at orthologue receptor; assay type: cell-based; settings: Table 8; Calcium assays; mean +/− standard deviation
T3 sequence (O88854 1-371): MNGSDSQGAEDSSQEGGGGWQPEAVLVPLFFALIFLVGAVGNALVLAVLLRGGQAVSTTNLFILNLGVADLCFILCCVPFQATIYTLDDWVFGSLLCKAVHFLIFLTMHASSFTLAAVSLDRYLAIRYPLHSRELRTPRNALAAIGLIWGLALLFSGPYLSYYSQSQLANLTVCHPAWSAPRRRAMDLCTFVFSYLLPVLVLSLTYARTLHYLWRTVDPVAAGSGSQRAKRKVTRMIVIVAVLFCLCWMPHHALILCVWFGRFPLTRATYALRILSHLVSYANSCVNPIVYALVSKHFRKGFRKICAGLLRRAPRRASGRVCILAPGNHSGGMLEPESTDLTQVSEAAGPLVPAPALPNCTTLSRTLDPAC
Source text: (§1) These species were chosen as they represent potential downstream in vivo models to be used. Within native galanin amino acid residues 1-15 are conserved across species, we would therefore expect the Gal FC fusions comprising amino acids 2 to 13 to retain GalR2 activity in these species. Calcium imaging was used to define receptor activity.

cynomolgus GalR2 = assay: Calcium assay at orthologue receptor; assay type: cell-based, Macaca fascicularis; settings: Table 8; Calcium assays; mean +/− standard deviation
Source text: as §1

GALR2 [2] = biological target: T1, GALR2; assay: Calcium assay, CHO GalR2 cells (FLIPR); settings: mean +/− standard deviation; for GalR2 Calcium, mean pEC50: Table 2, n ≥ 3; for GalR2 activity (calcium assay), warhead length: Table 6
Method: CHO GalR2 cells were plated at 10,000 cells per well in black clear bottom plates (corning, USA) and incubated overnight at 37° C. with 5% CO2. […] Ligands were prepared at a 5× concentration and added to cells using the FLIPR (Molecular Devices, USA). Baseline was typically 20 seconds before ligand addition. […] For analysis, fluorescence was normalised to pre-addition baseline and peak fluorescence used for all quantification.
In brief, a panel of functional cell-based microtiter-plate assays were developed using recombinant GalR1 and GalR2 receptors stably expressed in CHO cells. […] Nominally this equated to 10 serial (~3fold) dilutions with highest concentrations of 10-1 μM as appropriate.
In addition to generating both potency and efficacy estimates, the latter being expressed relative to native galanin, both G-protein and non-G-Protein signalling pathways were measured.

[3] = highest concentration tested 10 μM

Substance	GalR2 Beta Arrestin, mean pEC50 (GALR2 [1])	activity at GalR3 (in words) (GALR3)	Mouse GalR2 activity (mouse GalR2)	Cynomolgus GalR2 activity (cynomolgus GalR2)	GalR2 Calcium, mean pEC50 (GALR2 [2])	GalR2 activity (calcium assay), warhead length (GALR2 [2]; [3])	GalR2 activity (calcium assay), linker variants (GALR2 [2]; Table 7, highest concentration tested 10 μM)
Gal2-30FC: galanin 2-30, AEAAAKEAAAKA linker, human IgG1 FC; SEQ ID NO: 28	7.3 +/− 0.2	no measurable activity	7.0 +/− 0.1	8.4 +/− 0.1	6.6 +/− 0.3	6.8 +/− 0.1	–
Gal2-13FC: galanin 2-13, AEAAAKEAAAKA linker, human IgG1 FC; SEQ ID NO: 7	6.7 +/− 0.2	no measurable activity	6.4 +/− 0.3	7.7 +/− 0.4	6.3 +/− 0.3	6.4 +/− 0.1	6.4 +/− 0.1

— patent publication US20260209301A1, “Galanin-2 Receptor Agonists” (LIFEARC, priority 2022, published 2026)
